Paper PMC4599002, “The Potato Nucleotide-binding Leucine-rich Repeat (NLR) Immune Receptor Rx1 Is a Pathogen-dependent DNA-deforming Protein” (The Journal of Biological Chemistry, 2015)
Changes are numbered by the printed parent chain.

How the values were obtained:
Rx1(1–489)WT = molecular target: T1, Rx1(1–489)WT (Solanum tuberosum, UniProt Q9XGF5); assay: time-resolved FRET of DNA bending; type: biochemical; conditions: 20-bp end-labelled dsDNA (50 nM), 1.5 uM protein, 60 mM NaCl, room temperature; activator of DNA bending, P-loop dependent
T1 construct: gene rx; CC-NB-ARC region, residues 1-489, LRR domain absent; pET32c, hexahistidine tag
T1 sequence (Q9XGF5 1-489): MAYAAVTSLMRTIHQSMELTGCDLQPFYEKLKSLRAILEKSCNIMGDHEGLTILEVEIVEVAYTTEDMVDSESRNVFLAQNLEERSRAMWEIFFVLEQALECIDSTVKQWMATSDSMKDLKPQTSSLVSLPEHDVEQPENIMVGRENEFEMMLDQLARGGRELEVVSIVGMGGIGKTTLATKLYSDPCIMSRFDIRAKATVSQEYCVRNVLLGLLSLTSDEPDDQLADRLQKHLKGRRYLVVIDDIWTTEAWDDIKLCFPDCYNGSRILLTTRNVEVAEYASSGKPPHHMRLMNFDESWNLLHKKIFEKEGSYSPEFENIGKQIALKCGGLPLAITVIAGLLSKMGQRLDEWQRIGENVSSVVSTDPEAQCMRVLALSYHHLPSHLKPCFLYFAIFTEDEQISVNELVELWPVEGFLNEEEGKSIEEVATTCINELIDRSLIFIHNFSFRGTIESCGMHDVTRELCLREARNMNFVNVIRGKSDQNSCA

[1] = molecular target: T2, Rx1(1-489) WT (CC-NB-ARC) (potato (introgressed from Solanum …, UniProt Q9XGF5 1-489)); assay: P1 nuclease sensitivity; no nucleotide; local melting; EMSA: 0.15 nM 32P nucleic acid, 20 mM Tris-HCl pH 8.0, 60 mM NaCl, 2 mM EDTA, 1 mM DTT, 10% glycerol, 0.1 mg/ml BSA, 20 min on ice; FRET: 1.5 uM protein, 50 nM; conditions: protein: recombinant; tags: His6 (pET32c); label: 32P 5' end of strand 1; blunt
T2 sequence: T1 sequence (Q9XGF5 1-489)

Orc1-1;Orc1-3 = molecular target: T3, Orc1-1;Orc1-3 (Sulfolobus solfataricus;Sulfolobus …, UniProt Q980N4;Q97WM8 1-397;1-394, |); assay: P1 nuclease sensitivity; sensitivity indistinguishable from Rx1(1-489)WT; EMSA: 0.15 nM 32P nucleic acid, 20 mM Tris-HCl pH 8.0, 60 mM NaCl, 2 mM EDTA, 1 mM DTT, 10% glycerol, 0.1 mg/ml BSA, 20 min on ice; FRET: 1.5 uM protein, 50 nM; conditions: protein: recombinant;recombinant; tags: ;; copies: 1;1; label: 32P 5' end of strand 1; blunt
T3 sequence 1: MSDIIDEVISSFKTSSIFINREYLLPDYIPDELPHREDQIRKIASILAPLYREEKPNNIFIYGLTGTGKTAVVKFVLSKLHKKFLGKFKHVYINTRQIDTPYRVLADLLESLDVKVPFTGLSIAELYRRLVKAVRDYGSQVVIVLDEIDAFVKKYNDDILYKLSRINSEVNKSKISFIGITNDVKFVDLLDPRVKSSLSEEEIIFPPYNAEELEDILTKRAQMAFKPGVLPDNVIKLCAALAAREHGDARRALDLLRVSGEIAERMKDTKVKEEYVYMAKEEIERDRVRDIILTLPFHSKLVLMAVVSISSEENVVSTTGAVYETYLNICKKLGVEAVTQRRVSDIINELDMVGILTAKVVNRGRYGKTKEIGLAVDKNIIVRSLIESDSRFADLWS
T3 sequence 2: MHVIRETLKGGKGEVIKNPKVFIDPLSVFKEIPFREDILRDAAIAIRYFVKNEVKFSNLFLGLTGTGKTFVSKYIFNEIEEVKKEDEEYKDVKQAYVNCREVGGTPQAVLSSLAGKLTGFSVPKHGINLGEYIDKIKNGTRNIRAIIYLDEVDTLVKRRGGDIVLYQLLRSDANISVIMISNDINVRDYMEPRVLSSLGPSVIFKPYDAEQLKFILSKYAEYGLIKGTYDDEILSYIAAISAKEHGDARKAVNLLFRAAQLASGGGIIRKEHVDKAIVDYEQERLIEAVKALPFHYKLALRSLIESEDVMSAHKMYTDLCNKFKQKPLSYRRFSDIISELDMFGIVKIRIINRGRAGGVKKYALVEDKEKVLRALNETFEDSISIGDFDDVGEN

[2] = molecular target: T2, Rx1(1-489) WT (CC-NB-ARC); assay: time-resolved FRET (bending); no nucleotide; bend angle 42 degrees; EMSA: 0.15 nM 32P nucleic acid, 20 mM Tris-HCl pH 8.0, 60 mM NaCl, 2 mM EDTA, 1 mM DTT, 10% glycerol, 0.1 mg/ml BSA, 20 min on ice; FRET: 1.5 uM protein, 50 nM; conditions: protein: recombinant; tags: His6 (pET32c); label: fluorescein donor and tetramethylrhodamine acceptor, end labels; blunt
Rx1(1-489) K176R = molecular target: T4, Rx1(1-489) K176R (potato (introgressed from Solanum …, UniProt Q9XGF5 1-489, K176R)); assay: time-resolved FRET (bending); no nucleotide; bends similarly to WT; EMSA: 0.15 nM 32P nucleic acid, 20 mM Tris-HCl pH 8.0, 60 mM NaCl, 2 mM EDTA, 1 mM DTT, 10% glycerol, 0.1 mg/ml BSA, 20 min on ice; FRET: 1.5 uM protein, 50 nM; conditions: protein: recombinant; tags: His6 (pET32c); label: fluorescein donor and tetramethylrhodamine acceptor, end labels; blunt
T4 sequence: T1 sequence (Q9XGF5 1-489) with K176R

[3] = molecular target: T2, Rx1(1-489) WT (CC-NB-ARC); assay: EMSA; apparent Kd in Table 1 (values not in material); text: submicromolar; EMSA: 0.15 nM 32P nucleic acid, 20 mM Tris-HCl pH 8.0, 60 mM NaCl, 2 mM EDTA, 1 mM DTT, 10% glycerol, 0.1 mg/ml BSA, 20 min on ice; FRET: 1.5 uM protein, 50 nM; conditions: protein: recombinant; tags: His6 (pET32c); label: 32P 5' end; blunt
[4] = molecular target: T2, Rx1(1-489) WT (CC-NB-ARC); assay: EMSA; higher affinity than dsDNA or ssRNA; Kd in Table 1 not in material; EMSA: 0.15 nM 32P nucleic acid, 20 mM Tris-HCl pH 8.0, 60 mM NaCl, 2 mM EDTA, 1 mM DTT, 10% glycerol, 0.1 mg/ml BSA, 20 min on ice; FRET: 1.5 uM protein, 50 nM; conditions: protein: recombinant; tags: His6 (pET32c); label: 32P 5' end; single strand
[5] = molecular target: T2, Rx1(1-489) WT (CC-NB-ARC); assay: EMSA; higher affinity than F12-ds/ss; EMSA: 0.15 nM 32P nucleic acid, 20 mM Tris-HCl pH 8.0, 60 mM NaCl, 2 mM EDTA, 1 mM DTT, 10% glycerol, 0.1 mg/ml BSA, 20 min on ice; FRET: 1.5 uM protein, 50 nM; conditions: protein: recombinant; tags: His6 (pET32c); label: 32P 5' end of strand 1; fork 1:2, two single-stranded arms
[6] = molecular target: T2, Rx1(1-489) WT (CC-NB-ARC); assay: EMSA; affinity similar to dsDNA; Kd in Table 1 not in material; EMSA: 0.15 nM 32P nucleic acid, 20 mM Tris-HCl pH 8.0, 60 mM NaCl, 2 mM EDTA, 1 mM DTT, 10% glycerol, 0.1 mg/ml BSA, 20 min on ice; FRET: 1.5 uM protein, 50 nM; conditions: protein: recombinant; tags: His6 (pET32c); label: 32P 5' end; single strand

Nc1ncnc2c1ncn2[C@@H]1O[C@H](COP(=O)(O)OP(=O)(O)OP(=O)(O)O)[C@@H](O)[C@H]1O [ATP]
time-resolved FRET of DNA bending (Rx1(1–489)WT): Notably ATP, but not ADP, strongly increased the contribution of the 129-ps lifetime

B1: C3/mORB dual site of oriC2 (dsDNA)
DNA 1: CTCAATACAATTGTCTCTGTGTAAATTTCCTACGTTTCATCTGAAAATCTAGCTATTAGAGCTTGGTTTA
DNA 2: TAAACCAAGCTCTAATAGCTAGATTTTCAGATGAAACGTAGGAAATTTACACAGAGACAATTGTATTGAG
binding result [1]: binds | binding result (Orc1-1;Orc1-3): binds

B2: 20-bp FRET duplex (dsDNA)
DNA 1: TGGGTCAACGTGGGCAAAGA
DNA 2: TCTTTGCCCACGTTGACCCA
binding result [2]: binds | binding result (Rx1(1-489) K176R): binds

B3: SS1/SS2 dsDNA (dsDNA)
DNA 1: TGGGTCAACGTGGGCAAAGATGTCCTAGCAATGTAATCGTCTATGACGTT
DNA 2: AACGTCATAGACGATTACATTGCTAGGACATCTTTGCCCACGTTGACCCA
binding result [3]: binds

TGGGTCAACGTGGGCAAAGATGTCCTAGCAATGTAATCGTCTATGACGTT (ssDNA) [SS1 ssDNA]
binding result [4]: binds

B4: F12-ss/ss (structured_DNA)
DNA 1: GACGCTGCCGAATTCTGGCTTGCTAGGACATCTTTGCCCACGTTGACCC
DNA 2: B3 DNA 1
binding result [5]: binds

UGGGUCAACGUGGGCAAAGAUGUCCUAGCAAUGUAAUCGUCUAUGACGUU (ssRNA) [SS1 ssRNA]
binding result [6]: binds
